The target in the assay is purified human recombinant HGF (human, UniProt P14210 32-728). In words: far-Western, overlay or dot blot.
purified human recombinant HGF, sequence (P14210 32-728): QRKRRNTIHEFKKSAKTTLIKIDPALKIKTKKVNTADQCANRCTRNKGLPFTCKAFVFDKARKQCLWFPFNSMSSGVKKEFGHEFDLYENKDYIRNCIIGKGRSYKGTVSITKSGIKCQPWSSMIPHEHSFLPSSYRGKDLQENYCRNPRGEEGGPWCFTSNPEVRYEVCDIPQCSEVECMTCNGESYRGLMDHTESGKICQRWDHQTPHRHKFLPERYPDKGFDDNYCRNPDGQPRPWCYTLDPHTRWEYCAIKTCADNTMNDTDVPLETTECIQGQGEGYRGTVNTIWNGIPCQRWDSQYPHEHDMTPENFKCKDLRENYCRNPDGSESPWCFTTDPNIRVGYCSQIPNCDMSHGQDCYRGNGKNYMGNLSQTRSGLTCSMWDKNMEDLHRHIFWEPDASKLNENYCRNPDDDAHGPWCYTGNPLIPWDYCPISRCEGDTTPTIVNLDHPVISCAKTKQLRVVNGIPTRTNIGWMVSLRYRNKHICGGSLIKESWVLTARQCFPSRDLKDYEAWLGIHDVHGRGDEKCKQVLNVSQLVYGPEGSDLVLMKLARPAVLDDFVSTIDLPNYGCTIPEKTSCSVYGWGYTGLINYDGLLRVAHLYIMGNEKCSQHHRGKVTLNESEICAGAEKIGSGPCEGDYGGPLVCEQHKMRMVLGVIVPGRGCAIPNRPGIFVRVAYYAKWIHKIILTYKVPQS

As to PDITILLSGQTISDISANVNEGSQQKL [NEPHRIN-P1 peptide], the binding result is listed as “binds”.

Regarding QEGERVVFTCQATANPEIL [NEPH1-P1 peptide], the binding result is “binds”.
